Measurements from publication PMC5762634, “Domain swapping and SMYD1 interactions with the PWWP domain of human hepatoma-derived growth factor”.

Target: HDGF PWWP domain (human, UniProt P51858 1-100)
Experiment: size-exclusion chromatography; 5 mM EDTA; SEC: 20 mM Tris-HCl pH 7.5, 5 mM EDTA, 5 mM beta-ME, no added salt; protein:DNA 1:1, incubated overnight at 4 C
Details: protein: recombinant; tags: His tag (pET28a, NdeI/EcoRI, Ni-NTA); chain copies: 2; blunt

Chain of HDGF PWWP domain (P51858 1-100): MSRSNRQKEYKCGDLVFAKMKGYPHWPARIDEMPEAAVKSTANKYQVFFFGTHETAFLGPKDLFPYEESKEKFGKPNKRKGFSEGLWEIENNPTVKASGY

B1: 15-bp SMYD1 (dsDNA)
DNA 1: CAGGCTGGTCTTGAA
DNA 2: TTCAAGACCAGCCTG
  binding result: binds

B2: 5-bp SMYD1 (dsDNA)
DNA 1: CAGGC
DNA 2: GCCTG
  binding result: binds
